The experiment has as its target 5-HT1AR-Rluc (UniProt P08908). Description: BRET. The note with it: HEK293 cells, basal (no agonist); parent: est. 0.27; read off a plot.

5-HT1AR-Rluc, sequence (P08908 whole entry): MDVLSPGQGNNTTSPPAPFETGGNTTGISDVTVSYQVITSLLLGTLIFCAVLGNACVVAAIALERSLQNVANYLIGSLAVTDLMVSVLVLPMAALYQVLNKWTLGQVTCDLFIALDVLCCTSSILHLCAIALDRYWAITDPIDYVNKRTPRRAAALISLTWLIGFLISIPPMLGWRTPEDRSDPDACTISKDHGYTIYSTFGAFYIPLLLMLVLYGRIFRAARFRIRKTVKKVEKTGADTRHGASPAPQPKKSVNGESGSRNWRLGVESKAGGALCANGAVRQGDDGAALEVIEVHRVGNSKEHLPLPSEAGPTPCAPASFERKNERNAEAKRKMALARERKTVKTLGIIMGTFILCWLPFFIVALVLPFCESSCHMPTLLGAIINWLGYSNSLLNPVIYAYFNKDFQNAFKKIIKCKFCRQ
OX1R-EGFP, sequence (O43613 whole entry, stated change not applied): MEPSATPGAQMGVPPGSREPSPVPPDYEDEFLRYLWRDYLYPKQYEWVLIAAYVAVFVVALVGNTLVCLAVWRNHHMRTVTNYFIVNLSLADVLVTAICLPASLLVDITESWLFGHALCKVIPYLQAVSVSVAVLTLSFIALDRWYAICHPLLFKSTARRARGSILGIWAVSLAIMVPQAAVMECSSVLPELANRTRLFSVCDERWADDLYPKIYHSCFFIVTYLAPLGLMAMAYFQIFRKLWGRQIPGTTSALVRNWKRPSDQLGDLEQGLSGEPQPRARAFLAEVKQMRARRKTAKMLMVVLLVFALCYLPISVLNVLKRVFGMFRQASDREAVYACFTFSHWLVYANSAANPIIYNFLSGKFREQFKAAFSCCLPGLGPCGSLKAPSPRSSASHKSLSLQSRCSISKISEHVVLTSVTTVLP

For OX1R-EGFP (from UniProt O43613) L168A, the response was 0.27.
